Source: the NTF2 design screens of Basanta et al. (2020)

Assay: protease stability score; higher = more stable; yeast display proteolysis, trypsin and chymotrypsin;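 note: relative to predicted unfolded state with 0 unfolded-like and 1 meaning tenfold more protease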

Sequence | protease stability score
DHHEELRHWFLEIYRRIMITGDEKELEKLIDPHAKLRINGREHVGMEYIQRIFDLLRHEIRFKDMDIREYHLVDGQIDDHSVLTLHINGKEVTRETRIVNRKVNGRWKIEVESIH | 0.622
TEEERLHHELAKLMIHLMHTGDFDKLIKLVDPHAKLDEDVDGREVHVHGMEKWFEYLKEKFERIKNITIHIRDWRVYNGRVEIHVEYDINGKHVDTTIRLDVVNGRVKRIQIEQK | 2.16
DEDRRDAEEFIRLFHEAVQTGDEDTLRKFIDPRARIDVNGRILHGREEYLEWMREVLRFFKNVRFEVDLHDVKIVGDKIHVDTTLWTHFNGRDLELKTRVHLEKVNGVWRIKRIDFE | 0.77
NHEEEERHETFRIFLESVRTGDWKNTEKLLDPNARQVWNGKVLHGRESVIEVMRELRVDSLDVKSFDIQGEKAIMHGESEGVFNGKRLNMTLETHLVKVDGKWFLRELVII | 1.23
SEDEELSQKALEMVKHSSDTGDEKTTRQLMDPNYRMVIGDYELHGWELVVDFVRHARYDDLIMRRWDSQGDKIHLDGETIVNVGDKILHTRVRLIALKVNGQWKLNSVIFH | 0.149
DEDTNIEKMASQRIFHDIMTGDFQSLWEMFDPNARLIQGDWHSHGRENIIIYYMELVEKLGVTNVRFRLEDEDSQGDKVIIHSSLNINGRHFKLDIHAVKINGRWFIREVDVRLH | 1.4
TEEEKLARFAWHLRLHAEETGNEELIETLMDPNVKIDIDINGREIHMIGREEYIRWFNEYGFKHVEHVDEREMRVQGDYLDIRGRVIFHVNGQRIDTETQHHILVVDGRIKEIHDIYH | 1.69
DEERKDFEEALKKWLESMETGDEKHLEELFDPNAKFLIDGVELHGREVFKEFLRRFKNVRVEELHLDHLEVQGDKVITHVTFRGTFNGKHENVHRILIAVKFDGRWFVRSIEVH | 2.34
DEKEETIERLIRMLWHAWRTGDEDSLRNLFDPHAKLHVDGRDLVGMEMVYEDFHRQLNEWRINDLVIRTFRVQGDKIEIKGEIFGDINGRHTRHEVIIHIVVVDGRIKSLEVIND | 1.66
SEERHAVERYTEELARAISTGDEEKRLELLDPHVRYLQGDKHIHGRDEVWRHEHRQMEDLGVTRIEMRIRHIRIFNGRVEIEGEVRIGEFEMHFIIYVLKIDGRWIITQEEYS | 0.393
REEEEYRHHVLRRWLEIWETGDEEAEAKNVDPNARMHVNGVDLHGRETIIHFLEEYMRKVKGVQERNDKVHLQGEFTHLTGRVLINGRWKEVTIQLLIINGRHHYLRIIIE | 0.898
TEREEEVHHVQRLEWEALRTGNEEYLLRLIDPEVRIRQGDKTLIGREALNLHLKKVKNLQFRDIKLRDFDVQGEKIHLHTELIGEVDGRELKIDIDIHVKKINGRWVIDSFHIN | 1.32
DEIKTELEKWLREFIRDMRTGDEDTLRQQADPNMRLDVNGQEIIGWDRILREEIRLRHDLGLTQIHVTVKDHRIQGEKIHNRGEIIYGEFRLDTILIVKKVDGRWRATDMVVV | 1.17
HEEERIVEEVAKHFLHHFVTGDWHNLARLADPHVRSDINGRELHGWETLIHVMLKDLRRLGFKHFEVHHVHIQGDKYHNDGTLDYNGVKVRSHLEFQIVDGKLHQMRVQDK | 1.07
TEDKEKDDEVAHLFLNAVRTGDEELFQDLVDPETRLNVNGQEIHGRENVFRHMRETWDKMGVDHVELKDRRHINGVLILHFEIRVGDKTIHVEYIIEKIDGRWILTKVHIR | 0.569
DEKEEFTRRFAQILIELWKTGDEEDMNNNMDPDVQNHSEFNGREVHLIGMELYVEHSEQWLNRVKNARIIWRHVDAQGDKILIHGDLIVNGKRIHVELDFYIVNGRIKSITIHER | 2.02
SEEEEHEKEVIKRIREAMLTGDEDTLRHLLDPNVRVNIDGVEIVGMEMILRHLREIRVSIKDLKVTHVRSVNGRVEADTRSHLIIIIGDKKYEEESETRFFILKIDGRWLLTTIEFK | 1.49
DEQEESSRIIHKLIEHVAETGDWREWRKLLDPNTRLDVNGKEFHGWEKLLEHLEEHLDLLGVTKFTLRIQIRSMETQGNYVFIVGITHIHQGDKEIHRFTELIVLKINGKWLMKEIRFR | 1.37
DEMEEQIKRLIHLLAHYLRTGDEHSTEELADPNVRIHIDGKEYHGRELFIKFLHERLRHLGIKHIHIHIKDIREIDGRIHIDGELEQHIDGKERRMKQEMLVEKIDGQWHIKELEIE | 2.59
SETREIEEEWLRMMFENFITGDWKEIYKYADPNMRFTLSIGEKQERRHGRESMFHAFRRLEEDLGAKHVRLEDSTVYNGRVEINITLEDGDKHINRYIHIQVVNGRMHTIEVSFR | 0.628
